Literature values, collected in paper PMC8773757.

How the values were obtained:
[1] = target: thymidylate synthase (Homo sapiens) (UniProt P04818)
[2] = target: HIF-1α PAS-B (Homo sapiens) (UniProt Q16665)
[3] = target: p300/CBP (Homo sapiens) (UniProt Q09472)
[4] = target: CDC37 (Homo sapiens) (UniProt Q16543)
Sequence of UniProt Q16543 (Q16543 2-378): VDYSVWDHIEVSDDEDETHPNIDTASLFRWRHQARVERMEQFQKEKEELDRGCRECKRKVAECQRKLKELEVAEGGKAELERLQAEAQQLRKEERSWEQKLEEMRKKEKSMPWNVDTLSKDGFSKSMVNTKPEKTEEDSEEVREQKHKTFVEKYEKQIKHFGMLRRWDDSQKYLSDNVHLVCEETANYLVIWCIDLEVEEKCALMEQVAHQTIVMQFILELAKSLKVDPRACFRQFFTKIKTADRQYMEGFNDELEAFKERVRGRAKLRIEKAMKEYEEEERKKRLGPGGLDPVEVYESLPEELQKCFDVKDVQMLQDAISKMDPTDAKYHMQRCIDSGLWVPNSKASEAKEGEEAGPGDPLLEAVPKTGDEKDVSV

Sequence of UniProt Q09472 (Q09472 2-2414): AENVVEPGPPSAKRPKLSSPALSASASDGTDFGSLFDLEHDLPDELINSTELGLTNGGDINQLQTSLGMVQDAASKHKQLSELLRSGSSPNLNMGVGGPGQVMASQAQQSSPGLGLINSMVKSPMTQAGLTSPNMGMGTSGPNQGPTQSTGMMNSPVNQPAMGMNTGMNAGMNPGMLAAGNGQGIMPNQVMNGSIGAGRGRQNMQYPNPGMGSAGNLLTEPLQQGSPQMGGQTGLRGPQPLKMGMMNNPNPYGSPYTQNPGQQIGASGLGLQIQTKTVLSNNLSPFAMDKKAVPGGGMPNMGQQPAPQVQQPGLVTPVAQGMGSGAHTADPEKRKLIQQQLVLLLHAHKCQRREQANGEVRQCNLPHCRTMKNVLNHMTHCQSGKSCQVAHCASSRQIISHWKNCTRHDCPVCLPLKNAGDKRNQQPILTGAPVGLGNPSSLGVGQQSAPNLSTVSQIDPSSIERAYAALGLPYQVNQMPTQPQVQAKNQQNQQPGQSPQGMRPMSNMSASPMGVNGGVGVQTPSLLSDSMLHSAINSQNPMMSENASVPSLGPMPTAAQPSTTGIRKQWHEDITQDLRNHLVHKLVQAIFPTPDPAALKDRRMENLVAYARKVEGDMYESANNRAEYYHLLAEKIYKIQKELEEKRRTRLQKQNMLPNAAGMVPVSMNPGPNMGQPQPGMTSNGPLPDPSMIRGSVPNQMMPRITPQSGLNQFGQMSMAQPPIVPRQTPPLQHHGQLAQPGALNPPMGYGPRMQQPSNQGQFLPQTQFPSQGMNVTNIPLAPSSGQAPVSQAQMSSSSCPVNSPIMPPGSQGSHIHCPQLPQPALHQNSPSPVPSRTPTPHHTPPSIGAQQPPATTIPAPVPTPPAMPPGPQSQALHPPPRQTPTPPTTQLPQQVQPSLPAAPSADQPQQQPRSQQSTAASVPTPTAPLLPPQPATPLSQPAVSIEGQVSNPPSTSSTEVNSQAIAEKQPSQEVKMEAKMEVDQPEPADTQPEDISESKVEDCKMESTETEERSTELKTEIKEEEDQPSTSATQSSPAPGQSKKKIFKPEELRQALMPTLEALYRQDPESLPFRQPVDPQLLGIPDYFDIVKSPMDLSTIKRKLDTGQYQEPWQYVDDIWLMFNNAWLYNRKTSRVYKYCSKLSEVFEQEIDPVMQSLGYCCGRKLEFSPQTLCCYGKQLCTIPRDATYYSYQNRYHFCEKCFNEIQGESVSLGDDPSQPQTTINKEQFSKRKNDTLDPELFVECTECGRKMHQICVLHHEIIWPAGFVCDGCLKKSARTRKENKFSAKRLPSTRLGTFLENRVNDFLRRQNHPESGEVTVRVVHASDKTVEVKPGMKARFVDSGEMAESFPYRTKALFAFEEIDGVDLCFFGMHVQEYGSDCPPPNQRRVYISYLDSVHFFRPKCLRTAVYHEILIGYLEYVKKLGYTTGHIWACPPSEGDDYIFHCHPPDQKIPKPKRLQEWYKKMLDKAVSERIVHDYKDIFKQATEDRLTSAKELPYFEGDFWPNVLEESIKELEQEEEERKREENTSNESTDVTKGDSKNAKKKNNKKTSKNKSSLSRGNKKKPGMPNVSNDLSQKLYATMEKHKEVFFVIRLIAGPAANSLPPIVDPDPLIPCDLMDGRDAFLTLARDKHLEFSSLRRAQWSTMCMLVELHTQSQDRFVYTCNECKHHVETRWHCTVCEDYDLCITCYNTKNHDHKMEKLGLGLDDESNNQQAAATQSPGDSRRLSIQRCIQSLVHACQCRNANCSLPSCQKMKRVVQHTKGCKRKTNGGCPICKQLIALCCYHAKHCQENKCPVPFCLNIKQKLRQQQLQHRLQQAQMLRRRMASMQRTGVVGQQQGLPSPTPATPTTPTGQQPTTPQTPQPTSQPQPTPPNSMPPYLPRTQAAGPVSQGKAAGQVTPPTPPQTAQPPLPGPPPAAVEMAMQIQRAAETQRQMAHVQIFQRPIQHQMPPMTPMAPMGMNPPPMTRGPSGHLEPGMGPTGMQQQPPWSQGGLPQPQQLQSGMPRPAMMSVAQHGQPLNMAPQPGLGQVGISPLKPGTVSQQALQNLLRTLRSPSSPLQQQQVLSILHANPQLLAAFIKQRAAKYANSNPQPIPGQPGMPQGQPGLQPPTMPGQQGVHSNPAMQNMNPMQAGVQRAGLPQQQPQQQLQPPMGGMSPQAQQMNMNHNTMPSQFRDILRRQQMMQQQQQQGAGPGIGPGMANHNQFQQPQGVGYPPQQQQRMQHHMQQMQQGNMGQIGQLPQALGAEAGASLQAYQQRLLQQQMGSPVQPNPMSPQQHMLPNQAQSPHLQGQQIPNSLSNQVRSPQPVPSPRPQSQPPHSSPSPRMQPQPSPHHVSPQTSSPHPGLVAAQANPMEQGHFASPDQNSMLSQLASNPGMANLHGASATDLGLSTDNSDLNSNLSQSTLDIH
Sequence of HIF-1α (Q16665 whole entry): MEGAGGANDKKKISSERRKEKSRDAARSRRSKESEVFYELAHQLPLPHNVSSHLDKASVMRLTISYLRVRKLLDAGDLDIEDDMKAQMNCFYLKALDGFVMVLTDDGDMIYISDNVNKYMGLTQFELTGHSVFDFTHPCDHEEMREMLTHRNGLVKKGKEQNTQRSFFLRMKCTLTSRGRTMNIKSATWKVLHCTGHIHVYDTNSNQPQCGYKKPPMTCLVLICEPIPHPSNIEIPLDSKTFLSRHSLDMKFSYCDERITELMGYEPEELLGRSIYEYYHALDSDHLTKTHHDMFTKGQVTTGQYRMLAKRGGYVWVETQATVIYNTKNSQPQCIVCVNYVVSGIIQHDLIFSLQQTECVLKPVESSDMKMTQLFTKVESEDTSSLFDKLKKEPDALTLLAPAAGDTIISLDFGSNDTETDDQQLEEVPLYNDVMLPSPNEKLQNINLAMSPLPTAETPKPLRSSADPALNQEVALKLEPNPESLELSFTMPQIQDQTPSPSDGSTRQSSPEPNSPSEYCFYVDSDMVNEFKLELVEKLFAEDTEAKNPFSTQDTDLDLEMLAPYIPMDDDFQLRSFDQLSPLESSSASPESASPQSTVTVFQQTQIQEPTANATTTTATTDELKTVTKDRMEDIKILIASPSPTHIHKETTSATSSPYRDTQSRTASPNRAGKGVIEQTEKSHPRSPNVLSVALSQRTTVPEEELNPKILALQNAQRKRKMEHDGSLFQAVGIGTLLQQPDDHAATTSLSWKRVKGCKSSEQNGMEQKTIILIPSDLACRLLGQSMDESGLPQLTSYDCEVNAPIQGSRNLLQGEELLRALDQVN

Question: With “thymidylate synthase (from UniProt P04818)” as the substance, how does the Kd [1] read?
Answer: 0.2 µM

Question: Which Kd [2] does the source give for cyclo-CLLFVY here?
Answer: 0.124 µM

Question: With HIF-1α (from UniProt Q16665) as the substance, how does the Kd [3] read?
Answer: 0.007 µM

Question: With HSP90 (from UniProt P07900) as the substance, how does the Kd [4] read?
Answer: 100 µM
